Assay results taken from PMC3642234 (Biochimica et biophysica acta, 2013).

T1: recombinant human pancreatic triglyceride lipase (human, UniProt P16233 17-465)
T1 sequence: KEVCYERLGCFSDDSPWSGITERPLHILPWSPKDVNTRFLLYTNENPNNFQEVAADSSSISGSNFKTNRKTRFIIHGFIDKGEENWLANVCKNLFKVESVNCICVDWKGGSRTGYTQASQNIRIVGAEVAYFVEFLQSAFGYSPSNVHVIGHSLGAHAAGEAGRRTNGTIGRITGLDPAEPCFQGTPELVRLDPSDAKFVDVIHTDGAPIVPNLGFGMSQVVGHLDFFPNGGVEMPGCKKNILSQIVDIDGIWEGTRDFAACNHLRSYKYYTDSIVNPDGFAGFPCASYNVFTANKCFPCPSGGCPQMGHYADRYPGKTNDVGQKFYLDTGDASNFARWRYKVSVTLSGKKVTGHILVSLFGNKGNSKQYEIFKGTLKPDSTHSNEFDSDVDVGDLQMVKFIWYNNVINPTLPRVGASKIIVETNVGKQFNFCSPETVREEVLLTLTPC


Assays:
[1] = molecular target: recombinant human pancreatic triglyceride lipase (human) (UniProt P16233); experiment: co-sedimentation
[2] = molecular target: T1, recombinant human pancreatic …; experiment: co-sedimentation

| apparent Kd (colipase at half-maximal absorption of PTL to tributyrin emulsion) [1] | apparent Kd (colipase at half-maximal absorption of PTL to tributyrin emulsion) [2] | Molecule |
| --- | --- | --- |
| 78.6 nM |  | Y55A human colipase (natural protein) |
| 36 nM |  | I79A human colipase (natural protein) |
| 25.7 nM |  | L16A human colipase (natural protein) |
| 108 nM |  | F84A human colipase (natural protein) |
|  | 22.8 nM | wild-type human colipase (natural protein, UniProt P04118 18-112, looked up) APGPRGIIINLENGELCMNSAQCKSNCCQHSSALGLARCTSMASENSECSVKTLYGIYYKCPCERGLTCEGDKTIVGSITNTNFGICHDAGRSKQ |
